Test results from PMC10397247.
Each block holds one binder with its values, some of them ahead of it.

Legend:
4H967-AA = molecular target: T1, 4H967-AA; experiment: two-hybrid library CCmax; conditions: mean of both orientations;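 also: natural log of median RNA to DNA barcode read ratio; higher means stronger binding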
T1 chain: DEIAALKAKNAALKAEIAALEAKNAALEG

4H883-AA = molecular target: T2, 4H883-AA; experiment: two-hybrid library CCmax; conditions: mean of both orientations;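 also: natural log of median RNA to DNA barcode read ratio; higher means stronger binding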
T2 chain: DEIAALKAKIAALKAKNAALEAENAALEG

4H568-AA = molecular target: T3, 4H568-AA; experiment: two-hybrid library CCmax; conditions: mean of both orientations;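 also: natural log of median RNA to DNA barcode read ratio; higher means stronger binding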
T3 chain: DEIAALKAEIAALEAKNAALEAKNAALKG

4H953-AA = molecular target: T4, 4H953-AA; experiment: two-hybrid library CCmax; conditions: mean of both orientations;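 also: natural log of median RNA to DNA barcode read ratio; higher means stronger binding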
T4 chain: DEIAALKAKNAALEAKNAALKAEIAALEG

4H918-AA = molecular target: T5, 4H918-AA; experiment: two-hybrid library CCmax; conditions: mean of both orientations;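 also: natural log of median RNA to DNA barcode read ratio; higher means stronger binding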
T5 chain: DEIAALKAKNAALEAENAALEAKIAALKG

4H717-AA = molecular target: T6, 4H717-AA; experiment: two-hybrid library CCmax; conditions: mean of both orientations;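 also: natural log of median RNA to DNA barcode read ratio; higher means stronger binding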
T6 chain: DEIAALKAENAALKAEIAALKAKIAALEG

4H797-AA = molecular target: T7, 4H797-AA; experiment: two-hybrid library CCmax; conditions: mean of both orientations
T7 chain: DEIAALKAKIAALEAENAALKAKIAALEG

4H687-AA = molecular target: T8, 4H687-AA; experiment: two-hybrid library CCmax; conditions: mean of both orientations
T8 chain: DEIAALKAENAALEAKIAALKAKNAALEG

4H4001-AA = molecular target: T9, 4H4001-AA; experiment: two-hybrid library CCmax
T9 chain: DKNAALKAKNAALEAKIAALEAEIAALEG

4H906-bA = molecular target: T10, 4H906-bA; experiment: two-hybrid library CCNG1
T10 chain: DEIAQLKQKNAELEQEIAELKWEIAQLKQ

4H570-bA = molecular target: T11, 4H570-bA; experiment: two-hybrid library CCNG1
T11 chain: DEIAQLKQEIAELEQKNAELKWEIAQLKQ

4H619-bA = molecular target: T12, 4H619-bA; experiment: two-hybrid library CCNG1
T12 chain: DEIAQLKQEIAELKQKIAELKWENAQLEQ

4H584-bA = molecular target: T13, 4H584-bA; experiment: two-hybrid library CCNG1
T13 chain: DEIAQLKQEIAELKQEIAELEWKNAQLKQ

4H3414-bA = molecular target: T14, 4H3414-bA; experiment: two-hybrid library CCNG1
T14 chain: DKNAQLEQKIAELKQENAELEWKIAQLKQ

4H3817-bA = molecular target: T15, 4H3817-bA; experiment: two-hybrid library CCNG1
T15 chain: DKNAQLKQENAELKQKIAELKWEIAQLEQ

4H3172-bA = molecular target: T16, 4H3172-bA; experiment: two-hybrid library CCNG1
T16 chain: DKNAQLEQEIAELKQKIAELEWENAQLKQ

4H3974-bA = molecular target: T17, 4H3974-bA; experiment: two-hybrid library CCNG1
T17 chain: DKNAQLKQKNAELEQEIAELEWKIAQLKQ

4H3631-bA = molecular target: T18, 4H3631-bA; experiment: two-hybrid library CCNG1
T18 chain: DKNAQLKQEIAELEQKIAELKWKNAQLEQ

4H850-bA = molecular target: T19, 4H850-bA; experiment: two-hybrid library CCNG1
T19 chain: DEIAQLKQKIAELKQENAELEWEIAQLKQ

4H3638-bA = molecular target: T20, 4H3638-bA; experiment: two-hybrid library CCNG1
T20 chain: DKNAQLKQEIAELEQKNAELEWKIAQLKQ

4H982-AA = molecular target: T21, 4H982-AA; experiment: two-hybrid library CCmax; conditions: mean of both orientations
T21 chain: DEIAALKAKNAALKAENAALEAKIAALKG

4H2553-AA = molecular target: T22, 4H2553-AA; experiment: two-hybrid library CCmax; conditions: mean of both orientations
T22 chain: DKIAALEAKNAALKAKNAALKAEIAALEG

4H3588-AA = molecular target: T23, 4H3588-AA; experiment: two-hybrid library CCmax; conditions: mean of both orientations
T23 chain: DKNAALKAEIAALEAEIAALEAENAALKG

4H384-AA = molecular target: T24, 4H384-AA; experiment: two-hybrid library CCmax; conditions: mean of both orientations
T24 chain: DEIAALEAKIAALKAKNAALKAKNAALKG

4H3697-AA = molecular target: T25, 4H3697-AA; experiment: two-hybrid library CCmax; conditions: mean of both orientations
T25 chain: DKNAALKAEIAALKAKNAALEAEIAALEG

4H340-AA = molecular target: T26, 4H340-AA; experiment: two-hybrid library CCmax; conditions: mean of both orientations
T26 chain: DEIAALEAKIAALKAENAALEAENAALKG

4H32-AA = molecular target: T27, 4H32-AA; experiment: two-hybrid library CCmax; conditions: mean of both orientations
T27 chain: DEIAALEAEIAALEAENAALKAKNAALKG

4H3606-AA = molecular target: T28, 4H3606-AA; experiment: two-hybrid library CCmax; conditions: mean of both orientations
T28 chain: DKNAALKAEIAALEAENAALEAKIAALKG

4H2648-AA = molecular target: T29, 4H2648-AA; experiment: two-hybrid library CCmax; conditions: mean of both orientations
T29 chain: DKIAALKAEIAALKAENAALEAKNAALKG

4H1845-AA = molecular target: T30, 4H1845-AA; experiment: two-hybrid library CCmax; conditions: mean of both orientations
T30 chain: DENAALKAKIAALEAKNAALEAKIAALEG

4H3378-AA = molecular target: T31, 4H3378-AA; experiment: two-hybrid library CCmax; conditions: mean of both orientations
T31 chain: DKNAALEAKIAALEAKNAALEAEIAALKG

4H3631-AA = molecular target: T32, 4H3631-AA; experiment: two-hybrid library CCmax; conditions: mean of both orientations
T32 chain: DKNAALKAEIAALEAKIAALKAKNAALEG

4H2620-AA = molecular target: T33, 4H2620-AA; experiment: two-hybrid library CCmax; conditions: mean of both orientations
T33 chain: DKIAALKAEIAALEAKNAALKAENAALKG

4H2907-AA = molecular target: T34, 4H2907-AA; experiment: two-hybrid library CCmax; conditions: mean of both orientations
T34 chain: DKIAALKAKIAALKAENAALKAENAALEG

4H1629-AA = molecular target: T35, 4H1629-AA; experiment: two-hybrid library CCmax
T35 chain: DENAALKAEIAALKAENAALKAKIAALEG

4H3413-AA = molecular target: T36, 4H3413-AA; experiment: two-hybrid library CCmax; conditions: mean of both orientations
T36 chain: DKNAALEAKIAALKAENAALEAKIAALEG

4H3718-AA = molecular target: T37, 4H3718-AA; experiment: two-hybrid library CCmax; conditions: mean of both orientations
T37 chain: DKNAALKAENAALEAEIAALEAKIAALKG

4H697-AA = molecular target: T38, 4H697-AA; experiment: two-hybrid library CCmax; conditions: mean of both orientations
T38 chain: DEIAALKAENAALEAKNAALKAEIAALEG

4H3162-AA = molecular target: T39, 4H3162-AA; experiment: two-hybrid library CCmax; conditions: mean of both orientations
T39 chain: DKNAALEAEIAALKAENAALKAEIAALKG

4H1874-AA = molecular target: T40, 4H1874-AA; experiment: two-hybrid library CCmax; conditions: mean of both orientations
T40 chain: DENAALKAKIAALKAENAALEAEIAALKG

4H3865-AA = molecular target: T41, 4H3865-AA; experiment: two-hybrid library CCmax; conditions: mean of both orientations
T41 chain: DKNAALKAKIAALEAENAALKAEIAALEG

4H2611-AA = molecular target: T42, 4H2611-AA; experiment: two-hybrid library CCmax; conditions: mean of both orientations
T42 chain: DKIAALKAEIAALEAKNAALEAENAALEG

4H2198-AA = molecular target: T43, 4H2198-AA; experiment: two-hybrid library CCmax; conditions: mean of both orientations
T43 chain: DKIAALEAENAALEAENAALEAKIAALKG

4H3056-AA = molecular target: T44, 4H3056-AA; experiment: two-hybrid library CCmax; conditions: mean of both orientations
T44 chain: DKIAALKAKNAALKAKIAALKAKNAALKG

4H3133-AA = molecular target: T45, 4H3133-AA; experiment: two-hybrid library CCmax; conditions: mean of both orientations
T45 chain: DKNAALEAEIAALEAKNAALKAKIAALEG

O7-bH = molecular target: T46, O7-bH; experiment: two-hybrid library CCNG1
T46 chain: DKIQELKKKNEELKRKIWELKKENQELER

O3-bH = molecular target: T47, O3-bH; experiment: two-hybrid library CCNG1
T47 chain: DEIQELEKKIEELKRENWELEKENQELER

O5-bH = molecular target: T48, O5-bH; experiment: two-hybrid library CCNG1
T48 chain: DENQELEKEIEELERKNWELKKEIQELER

O4-bH = molecular target: T49, O4-bH; experiment: two-hybrid library CCNG1
T49 chain: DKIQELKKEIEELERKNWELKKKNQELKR

O9-bH = molecular target: T50, O9-bH; experiment: two-hybrid library CCNG1
T50 chain: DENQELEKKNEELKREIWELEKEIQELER

O8-bH = molecular target: T51, O8-bH; experiment: two-hybrid library CCNG1
T51 chain: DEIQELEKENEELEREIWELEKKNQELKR

O6-bH = molecular target: T52, O6-bH; experiment: two-hybrid library CCNG1
T52 chain: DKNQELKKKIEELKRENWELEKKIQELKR

- interaction score (4H967-AA): -1.57
- interaction score (4H883-AA): -1.75
- interaction score (4H568-AA): -1.85
- interaction score (4H953-AA): -1.79
- interaction score (4H918-AA): -0.824
- interaction score (4H717-AA): -1.32
- interaction score (4H797-AA): -1.79
- interaction score (4H687-AA): -2.04
- interaction score (4H4001-AA): -1.19
Binder: DKNAALKAKNAALEAKIAALEAEIAALEG [4H4001-AA]

- interaction score (4H906-bA): -0.0855
- interaction score (4H570-bA): -1.11
- interaction score (4H619-bA): -0.797
- interaction score (4H584-bA): -0.867
- interaction score (4H3414-bA): -0.273
- interaction score (4H3817-bA): -0.291
- interaction score (4H3172-bA): 1.36
- interaction score (4H3974-bA): 0.174
- interaction score (4H3631-bA): 0.247
- interaction score (4H850-bA): -0.244
- interaction score (4H3638-bA): -0.395
Binder: DKNAQLEQEIAELKQKIAELEWENAQLKQ [4H3172-bA]

- interaction score (4H982-AA): -1.55
- interaction score (4H2553-AA): -1.61
- interaction score (4H3588-AA): -1.46
- interaction score (4H384-AA): -1.82
- interaction score (4H3697-AA): -0.847
- interaction score (4H340-AA): -1.67
- interaction score (4H32-AA): -1.13
- interaction score (4H3606-AA): 0.462
- interaction score (4H2648-AA): -1.18
- interaction score (4H1845-AA): -1.22
- interaction score (4H3378-AA): -1.39
- interaction score (4H3631-AA): -1.7
- interaction score (4H2620-AA): -1.66
- interaction score (4H2907-AA): -1.89
- interaction score (4H1629-AA): 2.04
- interaction score (4H3413-AA): -0.212
- interaction score (4H3718-AA): -1.62
- interaction score (4H697-AA): -1.58
- interaction score (4H3162-AA): -0.752
- interaction score (4H1874-AA): -0.00053
- interaction score (4H3865-AA): -0.375
- interaction score (4H2611-AA): -1.42
- interaction score (4H2198-AA): -1.33
- interaction score (4H3056-AA): -1.6
- interaction score (4H3133-AA): -1
Binder: DENAALKAEIAALKAENAALKAKIAALEG [4H1629-AA]

- interaction score (O7-bH): -0.247
- interaction score (O3-bH): -0.176
- interaction score (O5-bH): -0.92
- interaction score (O4-bH): 2.01
- interaction score (O9-bH): -0.716
- interaction score (O8-bH): 0.212
- interaction score (O6-bH): -0.104
Binder: DEIQELEKKIEELKRENWELEKENQELER [O3-bH]
